Assay [1] addresses T1, [5F]PR–R1 (Staphylococcus aureus Newman D2 Tager …, 5-fluorescein (5-IAF) on the engineered C-terminal Cys).
T1 construct: the 10 SC residues preceding PR (1-10 of the construct numbering); staphylocoagulase, first 11 residues of the 32-residue pseudorepeat PR (11-21 of the construct numbering); last 21 residues of PR (22-42 of the construct numbering); staphylocoagulase repeat R1, 27 residues; engineered C-terminal Cys for labeling; not shown: His6, N-terminal, cleaved
As to the kind of experiment: other fluorescence titration; as the intensity titration in Hepes pH 7.4, with saturating GPRP (4.9 mM in the methods, 5 mM in the results); n fixed to 1. The settings on record: both partners purified.

In assay [2] the target is T1, [5F]PR–R1. As to the kind of experiment: other fluorescence titration; fluorescein-labeled construct at fixed concentration titrated with frag D; fluorescence intensity; 25 °C; 50 mM Hepes, 110 mM NaCl, 5 mM CaCl2, 1 mg/ml PEG-8000, pH 7.4, 10 μM FPR-CK; quadratic fit; n fixed to 1 for the Ala constructs and MP. The settings on record: both partners purified.

B1: fibrinogen fragment D (domain or fragment)
chain 1: VSEDLRSRIEVLKRKVIEKVQHIQLLQKNVRAQLVDMKRLEVDIDIKIRSCRGSCSRALAREVDLKDYEDQQKQLEQVIAKDLLPSR
chain 2: DNENVVNEYSSELEKHQLYIDETVNSNIPTNLRVLRSILENLRSKIQKLESDVSAQMEYCRTPCTVSCNIPVVSGKECEEIIRKGGETSEMYLIQPDSSVKPYRVYCDMNTENGGWTVIQNRQDGSVDFGRKWDPYKQGFGNVATNTDGKNYCGLPGEYWLGNDKISQLTRMGPTELLIEMEDWKGDKVKAHYGGFTVQNEANKYQISVNKYRGTAGNALMDGASQLMGENRTMTIHNGMFFSTYDRDNDGWLTSDPRKQCSKEDGGGWWYNRCHAANPNGRYYWGGQYTWDMAKHGTDDGVVWMNWKGSWYSMRKMSMKIRPFFPQQ
chain 3: KMLEEIMKYEASILTHDSSIRYLQEIYNSNNQKIVNLKEKVAQLEAQCQEPCKDTVQIHDITGKDCQDIANKGAKQSGLYFIKPLKANQQFLVYCEIDGSGNGWTVFQKRLDGSVDFKKNWIQYKEGFGHLSPTGTTEFWLGNEKIHLISTQSAIPYALRVELEDWNGRTSTADYAMFKVGPEADKYRLTYAYFAGGDAGDAFDGFDFGDDPSDKFFTSHNGMQFSTWDNDNDKFEGNCAEQDGSGWWMNKCHAGHLNGVYYQGGTYSKASTPNGYDNGIIWATWKTRWYSMKKTTMKIIPFNRLTIGEGQQHHLGGAK
Regarding B1, the Kd in assay [1] is 18 nM; in assay [2] it was 49 nM.

What is called Kd is a measure of binding affinity in units of concentration.

(Values after PMC8761706, “Mapping of the fibrinogen-binding site on the staphylocoagulase C-terminal repeat region” (The Journal of Biological Chemistry, 2021).)
